Reference: a protein production outcome set (Wang et al. 2014)

Experiment: label from the status in PepcDB records

Sequence | protein production
MEIEQQQPLPSERGLSPVARRALIGAITGCFVLGGVLMLLPPAGREPAAPPAPAAGPMAGPVAQAKAAVGAGVPVALPALAALVTDHETHLRAHPRDARSWAVLGAAYVAQGKGTADAAYFPKAEEALRTSLNVAPRRNAEALGALAALANARGDYREAKQWGEAAVKMAPKQWPAYAQLIDAYDGLGDYKATGKTLDKLLGLRAGPAAAARAAQVYRARGWREDAAAAIADATARAGSPAEQAVYWQQAGELAWERGEPEQALRYFETALRTDPDRHAALAGQGRALAALGRTSDAVNAYRAALAKQPLAAYAVELGELYESQGLGGAAQVQYYLVRERVRQDAAGGVNNRLVVGQFEADHGDAEVAVRELREEWKRQPSIRVADALGWALHRAGQDQEALGFATKAMDKEHGGGVRSALYAYHRGEIERALDQLAPARRHLAEALRINPHFSPWFAPMAKETLAELGEPPAEGLPGDEEVEAAEAEAAEAAEAAQTPEAAESVDPAQTEQVPPPGASTPVPQEPEAR | failed
NQLSGLHSMEEQLAKKLQIKKCLVVQGDSDDTPWVREEMGRVAVEQLDMALTEKRNIVAVMGGSTMATVAEMMTTDFAKGRELLFVPGRGGIGEDLDNQANTICDKMATKTNTKHRVLYVPEQLGEEAYRSLLKEPAIQEGLRLVQSANAIILGIGDALAMAKRRHTGEDVLEKIIRRKAVGEAFGYYFDEQGEVVHKVPTFGLQFEDLAQIPHIIAVAGGTSKAKAIKSYMKSAPKNTILITDEGAAKSLLK | not failed
SLKKNPRDIVTKKANIRIKTALSKMFNAMAKVTYDIDEADGDVIVNTAFIDKKYLDEAFDILKEAYKKGLGISDRFGIVEENDRIKIQTICAVTLDGIFLRNSVPLIPKYGGILEITEDKERFIDIIGYDGSSLDPHEVFFNFVDCEKTFLAGFREVHRVAREKLEEVLKKLNWNGIKAIGEPNNELYGIGVNKDMCGVVTMGGINPLVLLKENEIPIELKAMHEVVRFSDLKSYKEI | not failed
MSRVFVIGAAGKVGQRLIKKLGDGGHEVIALHRKEEQSVLIKAAGALPLLANLVEMDAAALSSAMAGSDVVVFTAGAGGAGIELTNAIDGEGLKTSVAAAELAGVRRFLLVSAFPEAARGTDTSAGFENYMRVKKHADVCLASSELDWVILRPGTLVDSAGSGQVRAGLAIPYGDIPRDDVAAFLAALVDQPEISRQIIELTEGTTPVELAIKALGTR | failed
MQSSQVKSAMRALEIMEFFRAVKQPRSMSEISIALGYPQSSTTVLLKTLISLGYLNFNRKERLYFPTLKVSALGDWIANSLFSSRDILEVLQDIHMETGETVAIATKNDIYLQYIQIIESVHALRFHVDENAIRPLTMSSNGWMLMSTMNDKAIDNTVRRANTITQKDGIRFEVDDMMARIRQVREQGYASAEHIPFVGGGTICVLLPMTIQGQPVTMGLGGALDRIKQNYDRYLELLLNGVQQLKKSDSFHQPIELAH | failed
MAKTIYQPAPEAESNIREERSQRPNNRRRILLITVAASVILGLVAILFGGAILNPAATPESEPTMTATQIIPLVILVVMFVVATKWPLNIGVMGLVASFGVGYFMLGMTDKEILADFPANIVITIIGVTYFFSMAQRNGTVDIIVQTCVRLVRGKTLLLPWVFFLLAASLTALGTFSPAAVALLAPAAIGLAYESRIHPVLMGAFIINGAHAGGFSPLSVAGVLVHDIAVKNGFPISQGALFGASFALNLILSVLTVVLFALLGKLRDGATGQHADLDTTRTTRPHGQQILTLALIVAMLVCALGFHMPIGFVALSAGLLLALVNIKEHRTFIGGVSWSTVLLVAGMITYVSLLQHVGVIDTLAEQALALGAPLLIALVLCYVIGVGSAFASSTALLTAFIPLAGPLLATSSLSASGTVAALAIAATVVDVSPFSTDGALVVANAREDDRQRVYKQLMMYAGGVVLVAPALAWALLVPTGIM | failed
MDFLARATAIVGNTMVLMRRFGSPGTQAIGQSPAIPEAQKQGIMTLKMPAAKGWAPGHLPTPAPGLKVNAFARDLEHPRWIEVLPSGDVLVAEARQLPTPPKTLLDRAAQATMRRIRALGDSPNRITLLRDPDGRGEAQERETFLENQSQPFGMALVGDTFYVGNTDGIMAFPYRPGATRLEGPGRRLTTFKPGGHWTRSLIVSPDGRRIYAGVGSLSNIGDDGMEAEEGRAAIWELDLASGQARIYASGLRNPVGLAWEPTTRVLWTVVNERDGLGDETPPDYLTSVEEDGFYGWPYCYWNRIVDDRVPQDPAMVARAITPDYALGGHTASLGLCWVPAGTLPGFGDGMAIGQHGSWNRSKLSGYRLIFVPFANGRPSGPPRDILTGFLSDDEKLAYGRPVGVAVGPDRRSLLLADDVGDVIWRVTGALEHHHHHH | failed
KRRIRQLELQVRMLEADKERLERELSRLRSEMSRLRQPPAFAGSVIEVLDDDRAIVQNYNGPRFVVRIAPWIDKSKLRPGTRVALDQRTMAIIEILPASKDPAVLGFEVVERPN | not failed
MNIKIVFYVLGGLLRLLGLLMIVPLGVAYYYGESLTPFLVSIVITVLTGLILLSYKTDEDWMRKEGFAIVALGWLAVAVFGAIPFMLDGISPLNSLFEAMSAFTTTGSTILTDIESHPKGILFWRSMMQWLGGMGIIVLFIAVLPKFGVAGRQLFRAEAPGPTEDKLKPRIRETAKILWMVYFVISFAEVVALLLAGLSLYDAITHTFTTMACGGFSPYGTSIEAFRSPLVEYIITFFMFVSGANFALHYRAIYVDKDFLLKDDEFRFYTALTLAATGLLTLLLYRDINTGFFDSFRLAIFQVVSIMTTTGFATADFNFWSDSAKMVLLLIMFVGGCAGSTGGGIKVVRILMLLRHGRVELFKSLHPRAIRGVKFNNKNVPDEVINSIFSFVVIYLFIFMSSALILAVLGMDIITSTTASIATLGNIGPGLNVVGPMGTFDPIPPLGKLILIANMWIGRLEVYTVIVLFTPEFWNK | failed
MTTLVPLNRIDSQKIEDLLDIGFGKDRHGRTAYRLRQGVSAIPELSFAAVDGDILQGIIQCWPIRLSCLNGKKLPMILLGPVAVHPDYQGHGIGQTLVQHSLDVADSSDITGHDAVMLIGDPEYYNRFFGFSDEETGDWRLPGPVEKRRLLARLTSPRL | failed
MKKLLTVTFFTGMLTFFKMISGFIISKIVAIYTGPSGIVLFGQIQSIVSALNGVINSPVGPGIVRFTAENHRKGLEHCYKWWIAGLSWVCIISAIIIPLSITLSSHIAFWTLGSEKYSWVIILTACLLPLTAIGTFISSVINGFQNYKVYVLLGIISAFLSLIIMIALIVFGKINGALLAISVQNALIGGVMIIYASSQPWFNLRWLYGRVHKTYYKDIQRYIVMAITSAIVVPGSLIIVRNIIIHYVGWTEAGYWQAVWKISETYLAIITIALSTYYLPRLSSLSQKDDIIKEISSSLKIIIPLVMFFSMGIYLSRDFIISLLFTKEFLGARMLFQVQLIGDILKIASWLYAYVMISKGMTQLFVISEVLFSLLFISFSLVFIRCYGLIGVTYAYCLNYFIYLVFSVVVVKRAKYD | failed
MPIVVFHKGDETFTDEVKDNTNLVVRAGIKQFPYPNLRYQCGMGKCATCACRILAGGEHLPEPNWKEKKQLGDRLAQGYRLACQLWITHDIELRQDAAAPAGGGD | failed
MQFIKRAHGEEQPYWPAGPFKIRLPFVHYRWELPEMIQGFFMFVVGLAMIPLLESYLGMPYEAALAFTFVAGVGYILPALLGVPLVPGWITPAIPVVLLYLKGFEPGPEAIRALFALQIEVAIIFLILGATRLGSKLVDVIPNSLKCGIIIGAGMAAMMGELKIGGRIDATPISLIVGSIISAYILFSLSFKNVINENSFARKIANFGMVPGMIIAMLVGWTVGEYPLPDIKWGITNPDFSLMWQYLPFTVGYPDWEIFLLAIPTALIAYVIAFGDILVGFTLVNRVDHIRKDEKIEENVDRVHLVTAIRNGFHAFLAPWPGLAGPLWTAAHATVAERYAMGRKSMESIYSGGGTFWMSGLLALFALPLVTLFKPVLPIALSLTLVLTAYICIMVGMEQLKNSTERGVAGIVAVTLAMPDPKSTMYAVCIGVILYFLIERPRLMGKHNSEDNIIFADETQEEVAVTNSNNT | failed
MTLMVPFKQVDVFTEKPFMGNPVAVINFLEIDENEVSQEELQAIANWTNLSETTFLFKPSDKKYDYKLRIFTPRSELPFAGHPTIGSCKAFLEFTKNTTATSLVQECKIGAVPITINEGLISFKAPMADYESISSEMIADYEKAIGLKFIKPPALLHTGPEWIVALVEDAETCFNANPNFAMLAHQTKQNDHVGIILAGPKKEAAIKNSYEMRAFAPVINVYEDPVCGSGSVALARYLQEVYKFEKTTDITISEGGRLKRNGLMLASIKKEADNSTSYYIAGHATTVIDGKIKV | not failed
MGHHHHHHSHMISWLTGEELHVEVLENVPLTTHNFVRKTFFTLAFCDFCRKLLFQGFRCQTCGYKFHQRCSTEVPLMCVNYDQLDLLFVSKFFEHHPIPQEEASLAETA | not failed
MQEQVSNVRARIYKPAKSTMQSGHSKLKAWKLEFEPSCTQYTEPLMNWTGSHDTKQQVCLSFTTRELAIAYAVAHKIDYTVLQDNPRTIVPKSYADNFTKPRDM | not failed
MAEEHRCETPEGHRLCVNNCGFFGSSATMNLCSNCYGDLCLKQQQQASMKSTVESSLSPVIAPVLENYAAELEIPTTKKTEEKKPIQIPTEQPSPPQRPNRCTVCRKRVGLTGFMCRCGTTFCGSHRYPEVHGCTFDFKSAGREEIAKANPLVIAAKLQKI | failed
MGKSIPVKTGLRGASAAVAGFIKSSKPIRPISSMDSSDKDSSSTTTTSETTRRFVPLSSVVSDCAKRWFKDTLEEAKAGNITMQVLLGQMYYSGYGVPKDARKVSSLFPPFQSLLFQVLGYNASDSDSESD | failed
MNSAALKSCLERENALVVEFLHALEAETEALMDRRAHESLQAAVQRKETLADDLAQLGAERDALLSGAGLASGPAGTDAAAAAHPELGPLWQALQANAAQAREHNQRNGTLIAVNLRHTQESLDALRQAAGTGAAATYDAQGRGKRGYSSA | not failed
MIFIESITNSVPWVNSLALTLNSPLLATTNEAENAPIVLTGVLLTLVVIYLASKIGGELSRLVDLPPVLGELVAGVLVGASALHLVVFPESGAVAGDSVIMTILQFINNLTPDAVTAIFQSQSEAVSVLAELGVIILLFEIGLESDLKELQKVGYQATIVACVGVAVPFTAGTVGLISIFHAPVIPAIFAGAALTATSIGITSKVLSELGQLKSREGQIIVGAAVIDDILGIIVLAVVASLAKTGEVDVLNVIYLIVSATVFLIGSILLGKYFNQSFVAIANKLQTRGNLIIPAFIFAFFMAFLGNAIHLEAILGAFAAGLVLDETDKRKELDEQVKPIADILVPIFFVTVGAKVDLSVLNPVVPGNREGLIIATFLIVVAIIGKIVTGWAVFGQPGINRLAVGVGMIPRGEVGLVFAGIGSASGALDKPLQAAIIIMVILTTFLAPPLLRFAFKQSEEIKELEKADLLG | failed
MSKPGTPKHGAGSSSAAAAPEKISKYNISTEKCGDLTVIVQGDLSQQEKRAVFITVHDLGCNHNSFQEFVSSPCMTEIKERSCFIHVDVPGHADNAEALADGFPFPSLQSLGEDLVTVLDYLHVKYVIGLGEGAGANVLARFGLAHPSRVLGLILINATGSAASVVQSFKNKFISWKSDEVAQSAESFLMYHKFGHQIVGENPDKEKIVAEYQKRLHRSLNSKNIGLYVKAFMNRKDLTLKGCKVDVILITGMLSPYASMVEKLHRDVEKERVTILKIERAGDVLADAPGKVAQSILLFCKGQGLLTSVVMPGVDRGRAFSTASSGSLEGANGSRRLSRGISMEDYDKPNIRRLSIMNSELPKKE | failed
FKVPPFQDCILSFLGFSDEEKHSMEEMTEMQGGSYLPVGDERCTHLIVEENTVKDLPFEPSKKLFVVKQEWFWGSIQMDARAGETMYLYEKANTPE | not failed
